Laboratory results: PMC10798628

Legend:
[1] = target: receptor for activated protein C kinase 1 (RACK1) (human (endogenous in Caco-2)) (UniProt P63244)
[2] = target: receptor for activated protein C kinase 1 (RACK1) (human (endogenous in Caco-2)) (UniProt P63244); remark: listed apart in the source

| Substance | inhibition rate of anti-RACK1 antibody on T. spiralis IIL invasion of the Caco-2 monolayer, compared to the PBS group [1] [%] | inhibition rate of the RACK1 inhibitor HO on T. spiralis IIL invasion of the Caco-2 monolayer, compared to the PBS group [1] [%] | expression level of RACK1 in Caco-2 cells treated with rTsSPc, Western blot, increase compared to the PBS group [2] [folds] | p-ERK1/2 level in Caco-2 cells treated with rTsSPc, Western blot, increase compared to the PBS group [2] [folds] |
| --- | --- | --- | --- | --- |
| recombinant Trichinella spiralis serine proteinase with GST tag (rTsSPc) | 5.12 | 7.37 |  |  |
| recombinant Trichinella spiralis serine proteinase with GST tag (rTsSPc) (enzyme) |  |  | 2.11 | 18.3 |
